Test: soluble on expression in E. coli; label from the status in PepcDB or PDB records

With “TPDTLELSLDKPAYRPGETAQLRIVPRAPGKALVTVLSNRVIAMKAVEVGEGETLVDLPVTDEWGTGVYVTATLLRPMDVAAGRNPTRALGLAHAAIDPGEKRLGATIETAAEAAPRGPMEIAVKVEGTAPGETVHATIAAVDVGILNLTGF” as the sequence, how does the “soluble on expression in E. coli” value read?
Its value is “not soluble”.

Which “soluble on expression in E. coli” value does the source give for “LEGTAGTITSNEWSSPTSPEGSTASGGSQALDKPIDNDAEGVWSPDIEQSFQEALAIYPPCGRRKIILSDEGKMYGRNELIARYIKLRTGKTRTRKQVSSHIQVLARRKAREIQAKLKDQAAKDKALQSMAAMSSAQIISATAFHSSMALARGPGRPAVSGFWQGALPGQAGTSHDVKPFSQQTYAVQPPLPLPGFESPAGPAPSPSAPPAPPWQGRSVASSKLWMLEFSAFLEQQQDPDTYNKHLFVHIGQSSPSYSDPYLEAVDIRQIYDKFPEKKGGLKDLFERGPSNAFFLVKFWADLNTNIEDEGSSFYGVSSQYESPENMIITCSTKVCSFGKQVVEKVETEYARYENGHYSYRIHRSPLCEYMINFIHKLKHLPEKYMMNSVLENFTILQVVTNRDTQETLLCIAYVFEVSASEHGAQHHIYRLVKE” here?
Its value is “soluble”.

With “GMQMNNHIRLRKAEGKWVIRTDSAVLGETLNAIELTEGSRDPVIYFPREDVAMVMFDKSEKVTACPLKGEASYYSIVGASGTLKDAAWSYESPKEGLEAIAGYLAFAPDCTKVGQY” as the sequence, how does the “soluble on expression in E. coli” value read?
The value was “soluble”.

With “MEKVVCIGCGVTIQTEDKTGLGYAPPASLTKENVICQRCFRLKNYNEIQDVSLTDDDFLNILHGIGETDSLVVKIVDIFDFNGSWINGLQRLVGGNPILLVGNKADILPKSLKRERLIQWMKREAKELGLKPVDVFLVSAGRGQGIREVIDAIEHYRNGKDVYVVGCTNVGKSTFINRIIKEVSGEEDIITTSQFPGTTLDAIEIPLDDGSSLYDTPGIINNHQMAHYVNKKDLKILSPKKELKPRTFQLNDQQTLYFGGLARFDYVSGERSPFICYMPNELMIHRTKLENADALYEKHAGELLTPPGKDEMDEFPELVAHTFTIKDKKTDIVFSGLGWVTVHDADKKVTAYAPKGVHVFVRRSLI” as the sequence, how does the “soluble on expression in E. coli” value read?
Its value is “not soluble”.

With “MQIMGLLEDKALVEAALFVAGRPLSVKELSKALGIKSLDYLEKLIELIASEYAERKSAIEVTKVAGDKWVMQVKQEYSQRVIHLMPKPELTAGELKTLALIAFLQPVEQSKIVKLRGSQAYEHIKRLLEMGLIYAEPYERTKLLGTTEKFAELYGFPENDPNLIREKFREVIHAEYEDLVKKLEETEANRNNPTT” as the sequence, how does the “soluble on expression in E. coli” value read?
The value was “soluble”.

Which “soluble on expression in E. coli” value does the source give for “MNSDLALLRLLQLASPGLPVGGFTYSQGLEWAVEAGWVRGVDSFAGWQREQVHDTLACLDWPVLARLYHACQAKDAEAFGHWSRFLLANRETAELRLEEQQRGAALARLLDGWQLGQAPAWRASLELTQLGGMAWLAAHWAIPLRQLALGHGFAWLEGAVMAGVKLVPFGQQAAQTLLRDLGADLPAALDQALALGDDQLGGGLPLLAIASSRHETQYTRLFRSLEHHHHHH” here?
The value was “soluble”.

Which “soluble on expression in E. coli” value does the source give for “MRMFSVQPIAFVHNERKEIKDDEWGEVRSRITLTEMYAEKSIQGIEDFSHIEVVFYFHKVTDEQIQYFARHPRNNKDYPEVGIFAQRGKNRPNRIGVTIVKVIKREGKSIIVEGLDAIDGTPILDIKPIMKEFMPTEEIHQPKWATDIMRQYWKGNVVKLEHHHHHH” here?
Its value is “soluble”.

Which “soluble on expression in E. coli” value does the source give for “MKKLLLSILFVGGGLISLSNNFTGPRYRVDISTGFIDDRRFALTSGYKFFSGSVSVLPEWELKFNKKFDISFGPKVSLNFENFIGSMDATTINPSIILGGEIDFNYKVIEDVKIYAGMEVGTGIGFQAFVSSSHNHFQGPELKTESKISLGVKVKDKFNLAFYTGDIKGVIGVEAGYTF” here?
The value was “not soluble”.

For “MWSTIFFVFSTFVLIVDSGSVGLCRTECIEQNSRKIVRVHLKDQLVMAGLCNNNTQQTGSIVTPYVCHRNIGLWTLDELDEEGTVKFETLCPTPEQYPLELRATCPRVDAQHDDTPNEMDIDDYPNSGDTPLSVV”, which “soluble on expression in E. coli” value is on record?
The value was “not soluble”.

For “MSLRSQQSGILGVIVADIRNPYFTALIRAVEEVAYRAGMRVTLCNTDEDPEREALYLELMQEERITGLIFAPTRVTVGRMHELALDYPTVLVDRAGPGSRYDSVVLDNGAAMAELVAHLQAQGYRRIGGLFGSTSTTAAERRDGYLAAMRAQGLQPDYREVAPTAEAAIAELGAWLANDQRPEAIVTSNSLLLMGALKAARTAGLRLPQDLALAGFDNERWTDLVEPGITVVEQPVEDMGRAAMSLLLERLSNRQLPIRRLVMTGRCVVRGSTAEGHHHHHH”, which “soluble on expression in E. coli” value is on record?
The value was “soluble”.

For “SLSVVAPAVYVGTWHKYNCGSIAGRWFDLTTFDDERDFFAACRALHQDEADPELMFQDYEGFPGNMASECHINWAWVEGFRQARDEGCEEAYRLWVEDTGETDFDTFRDAWWGEADSEEAFAVEFASDTGLLADVPETVALYFDYEAYARDLFLDSFTFIDGHVFRR”, which “soluble on expression in E. coli” value is on record?
The value was “soluble”.

With “MYHLKKILEVKQVNKTYSMDGNANYHVLKNIDLEVYEGEFVSVMGPSGSGKSTLLYNISGMDQMSSGSVKIDSKELSCMKEEELAKLRLTEIGFIFQQSNLLRNLNLFDNIILSAYLAKCESKKIVNKRALELMENMGISDIASHYITEASGGQLQRVSICRALINNPNIIFADEPTGALNLKSTEEVMQILLNINRDGTTIMLVTHDVKVAAKTERILFMADGEIVSEIQLGKLRNDDLKAREEKLLNWLAVLGF” as the sequence, how does the “soluble on expression in E. coli” value read?
The value was “not soluble”.

For “MIVGRDGVGVVEHAEQGPRIAVAVVTMGNRPAEVDALLASVAKQDLPPARIVIVGNGCPLPEFARRLDLPGEVTGIEVDENLGCPGGRNVALAKLREFGDVDVVVELDDDGLLVDADVLRRVRDLYAADPRLGIVGFRIADENGETQRRHVPRVGKSDPLRGGPVTGFLGGGHALSMAMLARTGDWPAEFFFAHEETDLAWRATDAGWTILYAPELLLQHPKTSPARHAIYHRVTARNRVWLARRRLPLPLIPVHLGIWIAVTLVRTRSAGGLRAWFGGFMEGVRTSGGERRPMRWRTVWRLTRLGRPPVILEHHHHHH”, which “soluble on expression in E. coli” value is on record?
The value was “not soluble”.

For “MGQKMKNAPVYFTIAQVRHNPVLRLGSYAPDIQDRMRKAGYPDFKKGIAMAFTLAPQLGDAPQTQPPVVEQVERLMFFSTDSTRGFIVEQNALSFHTTEYETFEALADEFMRGLAIVHECVTLAHSERIGLRYLDAVVPPGGETGLAEYLAPGVLGLSSRLPEDVTVSHSFSETHIQTAKCAVLARTIIQSGPLGFPMDLQPIGVKVADRFREINGVHAIVDTDASIEGRHPFNLELIKSQLQVLRDGVGIAFDATVTPIAVSAWNS”, which “soluble on expression in E. coli” value is on record?
Its value is “not soluble”.

For “MSIGVVLAKITAEFPDVTVSKIRYLESEGLITPQRTSTGYRRFTQDDVERLRYILVTQRDNYLPLKVIREQLEAMDSGAVTPISRGSDNAPLISPESFRTSVVTRLSDSDVAARAQVSESEVSELAEAGLIRPDSSGFFTADDVQVVSVAVQLKEFGFDVRHLKSLRNLASRHADLISRATTPVARSQSESARQRAEEMSQQLSALVVSLNATMLRSMLRDELNR”, which “soluble on expression in E. coli” value is on record?
Its value is “not soluble”.

With “MGSDKIHHHHHHMTQRQERLFVLEASSGGRLFSVNPDGSDKKVIVTGCRIPDGVAIDVLAGHVYWTNMGLPPENDGSIERVDLDGGNRTTIVPSGVTHTPKQLYLEAVGRKLYWGDREGMRVMRCDLDGSHVETLVQTGQGEDDRRDETRWCVGVAVDPAGGHLYWTQKGPSDAGLGKILRAGISLPAGESAAERGDIEVLFEGLPEPIDLELDLAERMLYWTDRGDPPRGNSVNRSPMHPPDAQRTPEILLTHLMEAIGIALDPDGGRMYVTDLAGNVYAAGLDGSNRREILVAQGNLTGIAHAVLPTGTSF” as the sequence, how does the “soluble on expression in E. coli” value read?
The value was “not soluble”.

For “MTSRPSSDQTWQPIDGRVALIAPASAIATDVLEATLRQLEVHGVDYHLGRHVEARYRYLAGTVEQRLEDLHNAFDMPDITAVWCLRGGYGCGQLLPGLDWGRLQAASPRPLIGFSDISVLLSAFHRHGLPAIHGPVATGLGLSPLSAPREQQERLASLASVSRLLAGIDHELPVQHLGGHKQRVEGALIGGNLTALACMAGTLGGLHAPAGSILVLEDVGEPYYRLERSLWQLLESIDARQLGAICLGSFTDCPRKEVAHSLERIFGEYAAAIEVPLYHHLPSGHGAQNRAWPYGKTAVLEGNRLRW”, which “soluble on expression in E. coli” value is on record?
The value was “soluble”.

Which “soluble on expression in E. coli” value does the source give for “TMITNSRGSVDLQPSLTGVFPSGLIETKVSAAKITENYQFDSRIRLNSIGFIPNHSKKATIAANCSTFYVVKEDGTIVYTGTATSMFDNDTKETVYIADFSSVNEEGTYYLAVPGVGKSVNFKIAMNVYEDAFKTAMLGMYLLRCGTSVSATYNGIHYSHGPCHTNDAYLDYINGQHTKKDSTKGWHDAGDYNKYVVNAGITVGSMFLAWEHFKDQLEPVALEIPEKNNSIPDFLDELKYEIDWILTMQYPDGSGRVAHKVSTRNFGGFIMPENEHDERFFVPWSSAATADFVAMTAMAARIFRPYDPQYAEKCINAAKVSYEFLKNNPANVFANQSGFSTGEYATVSDADDRLWAAAEMWETLGDEEYLRDFENRAAQFSKKIEADFDWDNVANLGMFTYLLSERPGKNPALVQSIKDSLLSTADSIVRTSQNHGYGRTLGTTYYWGCNGTVVRQTMILQVANKISPNNDYVNAALDAISHVFGRNYYNRSYVTGLGINPPMNPHDRRSGADGIWEPWPGYLVGGGWPGPKDWVDIQDSYQTNEIAINWNAALIYALAGFVNYNSPQNEVLYGDVNDDGKVNSTDLTLLKRYVLKAVSTLPSSKAEKNADVNRDGRVNSSDVTILSRYLIRVIEKLPI” here?
Its value is “soluble”.

For “MRGWHHHHHHGIRMRARYPSVVDVYSVEQFRNIMSEDILTVAWFTAVWCGPCKTIERPMEKIAYEFPTVKFAKVDADNNSEIVSKCRVLQLPTFIIARSGKMLGHVIGANPGMLRQKLRDIIKDN”, which “soluble on expression in E. coli” value is on record?
The value was “soluble”.

Which “soluble on expression in E. coli” value does the source give for “MGITVMARIDNYEQRFGGIGRLYTPDSLARLRQAHICVIGIGGVGSWVVEALARSGIGELTLIDMDDICVTNINRQLPAMSGTIGKLKTEVMSERVKLINPECTVNIIDDFISPENQSDYLNRGYDYVIDAIDNVKTKASLIAYCKRNKINVITIGGAGGQTDPTQIQIADLSKTIQDPLLAKVRSVLRKDYNFSQNPKRKFSIDAVFSTQPLIFPQMTEGCSTSATMNCANGFGAATMITATFGFFAVSRVIDKLLKKKSLEHHHHHH” here?
Its value is “not soluble”.

For “MFWVFLVRHGEAYPEEVDPQRPLTEKGRKDTEKIAKALKNFGVKPELIYTSPKLRAKQTAKIIANILGVEKIRETELLLPNTDPKETSKLIDGKNVVLCGHLPNLARLFSLLYLSEDNERRVNLSTSGALVLKWKDFWVLELLLEPSVL”, which “soluble on expression in E. coli” value is on record?
The value was “not soluble”.

For “MSLNVVNSIFSKLSIAPMIDWTNSPFRTLMRLLAPNALLYTEMQTTGAVQNNPDRALYFNSVEHPLAIQLGGADKSALVKCAIIAEQKGFNEINLNLGCPSDKVQAGRFGACLMKEPEHVADCIRAIKQVVGIPVTAKTRIGIDNQDSYEFFRSFSLHLVEAGCDKLIIHARKAWLNGLNPKQNRTIPPVNYDYVYELKKEIPHIFITINGNILTVEEINNHLKHVDGVMLGRLACDNPYQIAEIHQALYPEFIKIKRSQLLMNYLDYWFDQSRANEGHHHHHH”, which “soluble on expression in E. coli” value is on record?
Its value is “not soluble”.

With “TTTLAFRFQGGIIVAVDSRATAGNWVASQTVKRVIEINPFLLGTMAGGAADCQFWETWLGSQCRLHELREKERISVAAASKILSNLVYQYKGAGLSMGTMICGYTRKEGPTIYYVDSDGTRLKGDIFCVGSGQTFAYGVLDSNYKWDLSVEDALYLGKRSILAAAHRDAYSGGSVNLYHVTEDGWIYHGNHDVGELFWKVKEEEGSFNNVIG” as the sequence, how does the “soluble on expression in E. coli” value read?
Its value is “soluble”.

With “AHHHHHHGSSNIVKGIVKWVEGEQFIGGIEGENCSVILGEGGISPMKLLLLSVAGCTAYDVVMILRKMREPIRGLRVEIEGVRREEHPRVYKEVTIHYKIYGKVDEKKARRAIELSQEKYCSASAHLKLGGTIVRYTLEIFDDEPPSHAEG” as the sequence, how does the “soluble on expression in E. coli” value read?
Its value is “soluble”.

Reference: the DeepSol protein solubility set
